Measurements published in patent US20240101695A1 (University of California, published 2024).

T1: human FcεRI (human, UniProt P12319 26-257)
T1 construct: whole, on cells; Multi-subunit receptor; In the PCA assay it is the humanized FcεRI of transgenic huFcεRI mice; also called huFcεRI
T1 sequence (looked up): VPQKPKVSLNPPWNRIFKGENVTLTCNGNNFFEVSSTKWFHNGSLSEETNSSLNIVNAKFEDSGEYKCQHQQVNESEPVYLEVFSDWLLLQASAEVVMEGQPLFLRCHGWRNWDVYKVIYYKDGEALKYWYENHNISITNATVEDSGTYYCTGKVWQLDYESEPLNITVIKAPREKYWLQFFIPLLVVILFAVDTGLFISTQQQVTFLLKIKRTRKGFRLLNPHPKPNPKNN

T2: human CD138 (human, UniProt P18827 23-310)
T2 construct: whole, on cells; Endogenous antigen on MM.1S, MDA-MB-468 and SK-BR-3 cells; also called syndecan-1
T2 sequence (looked up): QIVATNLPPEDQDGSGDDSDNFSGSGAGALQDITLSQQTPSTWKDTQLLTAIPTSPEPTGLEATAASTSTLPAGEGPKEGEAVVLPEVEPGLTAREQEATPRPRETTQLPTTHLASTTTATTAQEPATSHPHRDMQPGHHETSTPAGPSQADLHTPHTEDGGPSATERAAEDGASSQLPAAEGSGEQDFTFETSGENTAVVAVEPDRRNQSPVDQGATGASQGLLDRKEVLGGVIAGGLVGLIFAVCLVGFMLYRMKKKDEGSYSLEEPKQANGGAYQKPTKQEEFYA


Key:
human FcεRI = molecular target: T1, human FcεRI; assay: flow cytometry on RBL SX-38 cells expressing human FcεRI
Experimental: Human MM cells (MM.1S) expressing CD138 were incubated with either IgE isotype control (non-targeting control), anti-CD138 IgG1, or anti-CD138 IgE. The rat basophilic leukemia cells RBL SX-38 expressing human FcεRI were incubated with either IgE isotype control, anti-CD138 IgG1, or anti-CD138 IgE. Antibody binding was detected using a PE-conjugated goat F(ab′)₂ anti-human κ antibody. Grey line histograms represent cells incubated with secondary antibody only (“no antibody”). Black line histograms represent cells incubated with primary antibodies (IgE isotype control, anti-CD138 IgG1, or anti-CD138 IgE).
Human MM cells (MM.1S) expressing TfR1 were incubated with either IgE isotype control (non-targeting control) or anti-TfR1 IgE. […] Antibody binding was detected using a PE-conjugated mouse IgG1 anti-human IgE antibody. […]
Antigen binding of the anti-CD38 IgE, anti-CD138 IgE, and anti-TfR1 IgE antibodies was studied by flow cytometry using the human multiple myeloma (MM) cell line MM.1S purchased from the American Type Culture Collection (ATCC, Manassas, VA, USA; ATCC® CRL-2974™). […] Binding to FcεRI was also assessed by flow cytometry using the rat basophilic leukemia cell line RBL SX-38 expressing human FcεRI¹¹³ kindly provided by Dr. Jean-Pierre Kinet (Beth Israel Deaconess Medical Center, Boston, MA, USA). […]

human CD138 = molecular target: T2, human CD138; assay: flow cytometry on MDA-MB-468 and SK-BR-3 cells expressing CD138
Experimental: Human triple negative breast cancer (TNBC) cells (MDA-MB-468) and human HER2/neu positive breast cancer cells (SK-BR-3) expressing CD138 were incubated with either IgE isotype control (non-targeting control) or anti-CD138 IgE. Antibody binding was detected using a PE-conjugated goat F(ab′)₂ anti-human κ antibody. Grey filled histograms represent cells incubated with secondary antibody only (“no antibody”). Empty black line histograms represent cells incubated with primary antibodies (IgE isotype control or anti-CD138 IgE).
(§1) Antigen binding of the anti-CD38 IgE, anti-CD138 IgE, and anti-TfR1 IgE antibodies was studied by flow cytometry using the human multiple myeloma (MM) cell line MM.1S purchased from the American Type Culture Collection (ATCC, Manassas, VA, USA; ATCC® CRL-2974™). […] Binding to FcεRI was also assessed by flow cytometry using the rat basophilic leukemia cell line RBL SX-38 expressing human FcεRI¹¹³ kindly provided by Dr. Jean-Pierre Kinet (Beth Israel Deaconess Medical Center, Boston, MA, USA). […] Samples were analyzed on a BD LSRII analytical flow cytometer (BD Biosciences, San Jose, CA, USA) and 10,000 events were collected. […]

[1] = molecular target: T3, human transferrin receptor 1 (TfR1) (human, UniProt P02786 1-760); assay: flow cytometry on MM.1S cells expressing TfR1
T3 construct: whole, on cells; Endogenous antigen on MM.1S cells; also called transferrin receptor protein 1; CD71
Experimental: Human MM cells (MM.1S) expressing TfR1 were incubated with either IgE isotype control (non-targeting control) or anti-TfR1 IgE. The rat basophilic leukemia cells RBL SX-38 expressing human FcεRI were incubated with either IgE isotype control or anti-TfR1 IgE. Antibody binding was detected using a PE-conjugated mouse IgG1 anti-human IgE antibody. Grey filled histograms represent cells incubated with secondary antibody only (“no antibody”). Empty black line histograms represent cells incubated with primary antibodies (IgE isotype control or anti-TfR1 IgE).
as §1

T3 sequence (P02786 whole entry): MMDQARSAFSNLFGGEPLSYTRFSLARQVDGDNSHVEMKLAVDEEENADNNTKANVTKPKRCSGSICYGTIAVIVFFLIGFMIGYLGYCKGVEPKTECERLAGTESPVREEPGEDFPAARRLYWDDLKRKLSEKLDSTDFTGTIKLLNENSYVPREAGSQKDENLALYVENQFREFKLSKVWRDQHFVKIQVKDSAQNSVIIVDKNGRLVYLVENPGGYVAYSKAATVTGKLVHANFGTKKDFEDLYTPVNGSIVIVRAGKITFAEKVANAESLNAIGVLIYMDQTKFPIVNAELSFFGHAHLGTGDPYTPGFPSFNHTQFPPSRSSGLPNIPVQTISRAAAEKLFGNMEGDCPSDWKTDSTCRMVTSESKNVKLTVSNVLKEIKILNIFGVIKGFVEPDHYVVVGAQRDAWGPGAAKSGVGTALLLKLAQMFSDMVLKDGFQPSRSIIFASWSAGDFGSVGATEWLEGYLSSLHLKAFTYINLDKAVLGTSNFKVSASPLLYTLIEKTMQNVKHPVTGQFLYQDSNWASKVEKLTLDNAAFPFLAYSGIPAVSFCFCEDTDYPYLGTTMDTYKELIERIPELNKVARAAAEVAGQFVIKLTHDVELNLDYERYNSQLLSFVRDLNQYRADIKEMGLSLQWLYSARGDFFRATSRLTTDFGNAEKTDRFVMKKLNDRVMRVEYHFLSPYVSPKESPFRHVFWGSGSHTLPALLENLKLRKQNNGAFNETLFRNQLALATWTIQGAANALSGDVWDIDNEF

binding result (human FcεRI)	binding result (human CD138)	binding result [1]	Binder
binds	binds	–	anti-CD138 IgE (antibody, Mouse/human chimeric IgE; also called CD138-Targeted Antibody; anti-CD138 IgE antibody) heavy: QVQLQQSGSELMMPGASVKISCKATGYTFSNYWIEWVKQRPGHGLEWIGEILPGTGRTIYNEKFKGKATFTADISSNTVQMQLSSLTSEDSAVYYCARRDYYGNFYYAMDYWGQGTSVTVSSASTQSPSVFPLTRCCKNIPSNATSVTLGCLATGYFPEPVMVTWDTGSLNGTTMTLPATTLTLSGHYATISLLTVSGAWAKQMFTCRVAHTPSSTDWVDNKTFSVCSRDFTPPTVKILQSSCDGGGHFPPTIQLLCLVSGYTPGTINITWLEDGQVMDVDLSTASTTQEGELASTQSELTLSQKHWLSDRTYTCQVTYQGHTFEDSTKKCADSNPRGVSAYLSRPSPFDLFIRKSPTITCLVVDLAPSKGTVNLTWSRASGKPVNHSTRKEEKQRNGTLTVTSTLPVGTRDWIEGETYQCRVTHPHLPRALMRSTTKTSGPRAAPEVYAFATPEWPGSRDKRTLACLIQNFMPEDISVQWLHNEVQLPDARHSTTQPRKTKGSGFFVFSRLEVTRAEWEQKDEFICRAVHEAASPSQTVQRAVSVNPGK light: DIQMTQSTSSLSASLGDRVTISCSASQGINNYLNWYQQKPDGTVELLIYYTSTLQSGVPSRFSGSGSGTDYSLTISNLEPEDIGTYYCQQYSKLPRTFGGGTKLEIKRTVAAPSVFIFPPSDEQLKSGTASVVCLLNNFYPREAKVQWKVDNALQSGNSQESVTEQDSKDSTYSLSSTLTLSKADYEKHKVYACEVTHQGLSSPVTKSFNRGEC
binds	–	binds	anti-TfR1 IgE (antibody, Mouse/human chimeric IgE; also called TfR1-Targeted Antibody; anti-TfR1 IgE antibody) heavy: EVQLQQSGPELVKPGASMKISCKASGYSFTGYTMNWVKQSHGENLEWIGRINPHNGGTDYNQKFKDKAPLTVDKSSNTAYMELLSLTSGDSAVYYCARGYYYYSLDYWGQGTSVTVSSASTQSPSVFPLTRCCKNIPSNATSVTLGCLATGYFPEPVMVTWDTGSLNGTTMTLPATTLTLSGHYATISLLTVSGAWAKQMFTCRVAHTPSSTDWVDNKTFSVCSRDFTPPTVKILQSSCDGGGHFPPTIQLLCLVSGYTPGTINITWLEDGQVMDVDLSTASTTQEGELASTQSELTLSQKHWLSDRTYTCQVTYQGHTFEDSTKKCADSNPRGVSAYLSRPSPFDLFIRKSPTITCLVVDLAPSKGTVNLTWSRASGKPVNHSTRKEEKQRNGTLTVTSTLPVGTRDWIEGETYQCRVTHPHLPRALMRSTTKTSGPRAAPEVYAFATPEWPGSRDKRTLACLIQNFMPEDISVQWLHNEVQLPDARHSTTQPRKTKGSGFFVFSRLEVTRAEWEQKDEFICRAVHEAASPSQTVQRAVSVNPGK light: QIVLTQSPAIMSVSPGEKVTMTCSASSSIRYIHWYQQRPGTSPKRWIYDTSNLASGVPARFSGSGSGTSYSLTISSMEAEDAATYYCHQRNSYPWTFGGGTRLEIRRTVAAPSVFIFPPSDEQLKSGTASVVCLLNNFYPREAKVQWKVDNALQSGNSQESVTEQDSKDSTYSLSSTLTLSKADYEKHKVYACEVTHQGLSSPVTKSFNRGEC
